Target: full-length AMC011 Env trimer (HIV-1)
Assay: negative-stain EM

Substance	stoichiometry N (Fab per trimer)
PGT151 Fab	2
PGT145 Fab	1
